Source: US10738090B2, “Engineered microcompartment protein and related methods and systems of engineering bacterial systems for non-native protein expression and purification” (priority 2017, dated 2020)
No end group written: not given here.

Experiments:
[1] = tested on: E. coli BL21(DE3) cells; format: cell-based; conditions: for concentration showing significant anti-bacterial activity: BL21(DE3) E. coli
Protocol: Growth inhibition activity can be tested against E. coli BL21(DE3) cells. Overnight cultures of cells were diluted to 200 μL of an initial OD600 of 0.05-0.1 in LB medium. Diluted cultures were grown at 37° C., 1000 rpm in a PHMP-4 Microplate Shaker (Grant Instruments, Cambridge, England). Protein was added to the culture at an OD600 of 0.1-0.2. Growth measured by OD600 was monitored over time and were conducted in triplicate. TEV-digested material contained HB-Enc fusion protein (0.5 mg/mL) that was incubated with TEV protease (0.5 U/mL) overnight for 17 h at 4° C.

[2] = tested on: pathogens; conditions: cited from earlier work
[3] = molecular target: T1, TEV protease (Tobacco etch virus, UniProt P04517); format: biochemical; conditions: for release of HB peptide by TEV protease: GT linker instead of G4T linker between TEV site and N-terminus of Enc, SDS-PAGE; for extent of TEV protease digestion / release of HBCM2 peptide: exogenous TEV protease, overnight at 4° C., G4T linker
T1 construct: Tobacco etch virus protease (TEV protease)
Protocol: All purified constructs were digested by addition of exogenous TEV protease, followed by overnight incubation at 4° C. Products were resolved on a 16.5% Tris-Tricine gel (Bio-Rad).

[4] = Proteolysis of HB fusion constructs in C43(DE3) cell lysate (SDS-PAGE, anti-His Western blot); parameters: species or system E. coli
Protocol: In particular, in order to perform the testing, all DNA plasmids were transformed and expressed in C43(DE3) cells as described in Example 12, except that cells were grown in 25 mL of LB medium in 150-mL flasks. IPTG induction was conducted overnight for 17 h at 18° C. to enhance soluble protein expression. Cells were harvested and lysed also as described in Example 12.
To test for proteolysis in cell lysate, cells expressing the HB-Enc constructs from 25 mL of culture were harvested and resuspended in phosphate buffer (50 mM sodium phosphate pH 8.0, 500 mM NaCl) and 10 U/mL of DNaseI. Cells were lysed via a French Pressure cell at 14,000 psi and then centrifuged at 12,000 g, 4° C. for 25 min. The supernatant (soluble) fraction was collected and incubated at 4° C. overnight. Samples for SDS-PAGE analysis were collected immediately after lysis and after overnight incubation.
As controls, samples after BPER-II lysis were also prepared. Samples were resolved on an any-kDa SDS-PAGE gel (Bio-Rad) and stained with Coomassie blue. For Western blot analysis, samples were resolved on an any-kDa and blotted to a PVDF membrane using a Transblot Turbo System (Bio-Rad) at 2.5 A for 7 min. Samples were probed using a mouse anti-His-tag primary antibody and a rabbit anti-Mouse-HRP conjugated secondary antibody (both from Bio-Rad). HRP was detected on the membrane using chemiluminescence.

[5] = French press lysis without BPER-II, then overnight incubation at 4° C.
[6] = immediately after French press lysis

With “MKWKSFIKKLTKAAKKVVTTAKKPLIVENLYFQ [M-HBCM2-TEV]” the “concentration showing significant anti-bacterial activity” value ([1]; chemically synthesized peptide) was 2 µg/mL and the MIC ([1]; chemically synthesized peptide, E. coli BL21(DE3), FIG. 31 Panel B) was less than 5 µg/mL.

For “GNNRPVYIPQPRPPHPRI [native Ap peptide, Apidaecin Ia, reference compound]”, the bactericidal activity [2] is given as “high bactericidal activity” and the “concentration showing significant anti-bacterial activity” value ([1]; chemically synthesized peptide) is given as no less than 100 µg/mL.

In the case of Cecropin PR-39, the bactericidal activity [2] is listed as “high bactericidal activity”.

B1: HB-EncD60^TEVK138^TEV-His with the shorter GT linker: HB-EncD60^TEVK138^TEV-His with a GT linker instead of the G4T linker (protein)
chain: MKWKSFIKKLTKAAKKVVTTAKKPLIVENLYFQGGTEFLKRSFAPLTEKQWQEIDNRAREIFKTQLYGRKFVDVEGPYGWEYAAHPLGEVEVLSDGGENLYFQGGGENEVVKWGLRKSLPLIELRATFTLDLWELDNLERGKPNVDLSSLEETVRKVAEFEDEVIFRGCEKSGVKGLLSFEERKGGGGGENLYFQGHHHHHHGGGGGIECGSTPKDLLEAIVRALSIFSKDGIEGPYTLVINTDRWINFLKEEAGHYPLEKRVEECLRGGKIITTPRIEDALVVSERGGDFKLILGQDLSIGYEDREKDAVRLFITETFTFQVVNPEALILLK
For B1, the “release of HB peptide by TEV protease” value [3] was “did not result in detectable release of HB peptide”.

B2: HB-EncK138^TEV-His: HBCM2, TEV site, G4T-linker fused to N-terminus of Enc; TEV site and His6-tag after K138; cage forming (protein)
chain: MKWKSFIKKLTKAAKKVVTTAKKPLIVENLYFQGGGGGTEFLKRSFAPLTEKQWQEIDNRAREIFKTQLYGRKFVDVEGPYGWEYAAHPLGEVEVLSDENEVVKWGLRKSLPLIELRATFTLDLWELDNLERGKPNVDLSSLEETVRKVAEFEDEVIFRGCEKSGVKGLLSFEERKGGGGGENLYFQGHHHHHHGGGGGIECGSTPKDLLEAIVRALSIFSKDGIEGPYTLVINTDRWINFLKEEAGHYPLEKRVEECLRGGKIITTPRIEDALVVSERGGDFKLILGQDLSIGYEDREKDAVRLFITETFTFQVVNPEALILLK
In the case of B2, the “proteolysis in cell lysate” value [4, 5] is reported as “resistant to proteolysis”.

B3: HB-EncD60^TEVK138^TEV-His: HB-Enc fusion with TEV site after D60 plus TEV-His insertion after K138; cage forming (protein)
chain: MKWKSFIKKLTKAAKKVVTTAKKPLIVENLYFQGGGGGTEFLKRSFAPLTEKQWQEIDNRAREIFKTQLYGRKFVDVEGPYGWEYAAHPLGEVEVLSDGGENLYFQGGGENEVVKWGLRKSLPLIELRATFTLDLWELDNLERGKPNVDLSSLEETVRKVAEFEDEVIFRGCEKSGVKGLLSFEERKGGGGGENLYFQGHHHHHHGGGGGIECGSTPKDLLEAIVRALSIFSKDGIEGPYTLVINTDRWINFLKEEAGHYPLEKRVEECLRGGKIITTPRIEDALVVSERGGDFKLILGQDLSIGYEDREKDAVRLFITETFTFQVVNPEALILLK
With B3 the “proteolysis in cell lysate” value [4, 5] was “resistant to proteolysis”.

B4: HB-EncK71^TEV (protein)
chain: MKWKSFIKKLTKAAKKVVTTAKKPLIVENLYFQGGGGGTEFLKRSFAPLTEKQWQEIDNRAREIFKTQLYGRKFVDVEGPYGWEYAAHPLGEVEVLSDENEVVKWGLRKGGENLYFQGGGSLPLIELRATFTLDLWELDNLERGKPNVDLSSLEETVRKVAEFEDEVIFRGCEKSGVKGLLSFEERKIECGSTPKDLLEAIVRALSIFSKDGIEGPYTLVINTDRWINFLKEEAGHYPLEKRVEECLRGGKIITTPRIEDALVVSERGGDFKLILGQDLSIGYEDREKDAVRLFITETFTFQVVNPEALILLK
In the case of B4, the “extent of TEV protease digestion / release of HBCM2 peptide” value [3] is reported as “apparent complete digestion”, the “proteolysis in cell lysate” value [4, 5] is reported as “completely proteolyzed” and the “proteolysis in cell lysate” value [4, 6] is reported as “significantly degraded”.

B5: HB-EncV57^TEVK138^TEV-His with the shorter GT linker: HB-EncV57^TEVK138^TEV-His with a GT linker instead of the G4T linker (protein)
chain: MKWKSFIKKLTKAAKKVVTTAKKPLIVENLYFQGGTEFLKRSFAPLTEKQWQEIDNRAREIFKTQLYGRKFVDVEGPYGWEYAAHPLGEVEVGGENLYFQGGGLSDENEVVKWGLRKSLPLIELRATFTLDLWELDNLERGKPNVDLSSLEETVRKVAEFEDEVIFRGCEKSGVKGLLSFEERKGGGGGENLYFQGHHHHHHGGGGGIECGSTPKDLLEAIVRALSIFSKDGIEGPYTLVINTDRWINFLKEEAGHYPLEKRVEECLRGGKIITTPRIEDALVVSERGGDFKLILGQDLSIGYEDREKDAVRLFITETFTFQVVNPEALILLK
In the case of B5, the “release of HB peptide by TEV protease” value [3] is reported as “did not result in detectable release of HB peptide”.

B6: HB-EncV57^TEVK138^TEV-His: HB-Enc fusion with TEV site after V57 plus TEV-His insertion after K138; cage forming (protein)
chain: MKWKSFIKKLTKAAKKVVTTAKKPLIVENLYFQGGGGGTEFLKRSFAPLTEKQWQEIDNRAREIFKTQLYGRKFVDVEGPYGWEYAAHPLGEVEVGGENLYFQGGGLSDENEVVKWGLRKSLPLIELRATFTLDLWELDNLERGKPNVDLSSLEETVRKVAEFEDEVIFRGCEKSGVKGLLSFEERKGGGGGENLYFQGHHHHHHGGGGGIECGSTPKDLLEAIVRALSIFSKDGIEGPYTLVINTDRWINFLKEEAGHYPLEKRVEECLRGGKIITTPRIEDALVVSERGGDFKLILGQDLSIGYEDREKDAVRLFITETFTFQVVNPEALILLK
For B6, the “proteolysis in cell lysate” value [4, 5] was “resistant to proteolysis”.

B7: TEV protease: Tobacco etch virus protease, recognition sequence ENLYFQ/G; negative control alone (protein)
chain: GESLFKGPRDYNPISSTICHLTNESDGHTTSLYGIGFGPFIITNKHLFRRNNGTLLVQSLHGVFKVKNTTTLQQHLIDGRDMIIIRMPKDFPPFPQKLKFREPQREERICLVTTNFQTKSMSSMVSDTSCTFPSSDGIFWKHWIQTKDGQCGSPLVSTRDGFIVGIHSASNFTNTNNYFTSVPKNFMELLTNQEAQQWVSGWRLNADSVLWGGHKVFMSKPEEPFQPVKEATQLMNELVYSQ
In the case of B7, the “anti-bacterial / growth inhibition activity” value ([1]; E. coli BL21(DE3), concentration not given) is reported as “no growth inhibition”.

B8: HB-EncK71^TEVK138^TEV-His: HBCM2 fused to N-terminus of T. maritima encapsulin; TEV sites after K71 and K138, His-tag; non-cage forming (protein)
chain: MKWKSFIKKLTKAAKKVVTTAKKPLIVENLYFQGGGGGTEFLKRSFAPLTEKQWQEIDNRAREIFKTQLYGRKFVDVEGPYGWEYAAHPLGEVEVLSDENEVVKWGLRKGGENLYFQGGGSLPLIELRATFTLDLWELDNLERGKPNVDLSSLEETVRKVAEFEDEVIFRGCEKSGVKGLLSFEERKGGGGGENLYFQGHHHHHHGGGGGIECGSTPKDLLEAIVRALSIFSKDGIEGPYTLVINTDRWINFLKEEAGHYPLEKRVEECLRGGKIITTPRIEDALVVSERGGDFKLILGQDLSIGYEDREKDAVRLFITETFTFQVVNPEALILLK
With B8 the “extent of TEV protease digestion / release of HBCM2 peptide” value [3] was “apparent complete digestion”, the “truncated products on expression (proteolysis)” value ([4]; C43(DE3) cells, anti-His-tag Western blot) was “some truncated products” and the “proteolysis in cell lysate” value [4, 5] was “completely proteolyzed”. The “proteolysis in cell lysate” value [4, 6] was “significantly degraded” and the “growth inhibition of E. coli” value ([1]; undigested fusion protein at 40 μg/mL) was “did not inhibit the growth”.

B9: HB-EncK138^TEV-His with the shorter GT linker: HB-EncK138^TEV-His with a GT linker between TEV site and N-terminus of Enc instead of G4T (protein)
chain: MKWKSFIKKLTKAAKKVVTTAKKPLIVENLYFQGGTEFLKRSFAPLTEKQWQEIDNRAREIFKTQLYGRKFVDVEGPYGWEYAAHPLGEVEVLSDENEVVKWGLRKSLPLIELRATFTLDLWELDNLERGKPNVDLSSLEETVRKVAEFEDEVIFRGCEKSGVKGLLSFEERKGGGGGENLYFQGHHHHHHGGGGGIECGSTPKDLLEAIVRALSIFSKDGIEGPYTLVINTDRWINFLKEEAGHYPLEKRVEECLRGGKIITTPRIEDALVVSERGGDFKLILGQDLSIGYEDREKDAVRLFITETFTFQVVNPEALILLK
In the case of B9, the “release of HB peptide by TEV protease” value [3] is reported as “did not result in detectable release of HB peptide”.
